Laboratory results published in paper PMC3355305, “Localized Dimerization and Nucleoid Binding Drive Gradient Formation by the Bacterial Cell Division Inhibitor MipZ” (Molecular Cell, 2012).

B1: MipZ (wild type), hexahistidine-tagged [Caulobacter crescentus] / itself (parent)
chain: MAETRVIVVGNEKGGAGKSTIAVHLVTALLYGGAKVAVIDLDLRQRTSARFFENRRAWLDNKKIELPEPLALNLSDNDVALAERPEEEQVAGFEAAFARAMAECDFILIDTPGGDSAITRMAHGRADLVVTPMNDSFVDFDMLGTVDPVTLELTKPSLYSLTVWEGRKQRALSGQRQAMDWVVLRNRLATTEARNRKRLEDRLNALAKRVGFRIGPGLRDRVIYRELFPFGLTIADLSPQVRPVPVSLQHLAARQELRALMHSLGLSAYSGETMLAAQ

Variants of: B1
Assay: SPR
Conditions: with itself; 3500 RU immobilized protein; 0.5 μM soluble protein; + ATP; parent: 370; read off a plot

Variant | response [RU]
MAETRVIVVGNEKGGAGKSTIAVHLVTALLYGGAKVAVIDLALRQRTSARFFENRRAWLDNKKIELPEPLALNLSDNDVALAERPEEEQVAGFEAAFARAMAECDFILIDTPGGDSAITRMAHGRADLVVTPMNDSFVDFDMLGTVDPVTLELTKPSLYSLTVWEGRKQRALSGQRQAMDWVVLRNRLATTEARNRKRLEDRLNALAKRVGFRIGPGLRDRVIYRELFPFGLTIADLSPQVRPVPVSLQHLAARQELRALMHSLGLSAYSGETMLAAQ [chain 1 D42A] | 910

Same assay, conditions: with itself; 3500 RU immobilized protein; 0.5 μM soluble protein; ATP in the binding phase; wash with buffer lacking protein and nucleotides

Variant | koff [s⁻¹]
MAETRVIVVGNEKGGAGKSTIAVHLVTALLYGGAKVAVIDLALRQRTSARFFENRRAWLDNKKIELPEPLALNLSDNDVALAERPEEEQVAGFEAAFARAMAECDFILIDTPGGDSAITRMAHGRADLVVTPMNDSFVDFDMLGTVDPVTLELTKPSLYSLTVWEGRKQRALSGQRQAMDWVVLRNRLATTEARNRKRLEDRLNALAKRVGFRIGPGLRDRVIYRELFPFGLTIADLSPQVRPVPVSLQHLAARQELRALMHSLGLSAYSGETMLAAQ [chain 1 D42A] | 0.00112
